Laboratory results as given in patent publication US20230301998A1 (SANFORD BURNHAM PREBYS MEDICAL DISCOVERY INSTITUTE, published 2023).

T1: Gamma-interferon-inducible protein 16 (IFI16) (human, UniProt Q16666 1-785)
T1 construct: Endogenous protein in WM115 / A375
T1 sequence: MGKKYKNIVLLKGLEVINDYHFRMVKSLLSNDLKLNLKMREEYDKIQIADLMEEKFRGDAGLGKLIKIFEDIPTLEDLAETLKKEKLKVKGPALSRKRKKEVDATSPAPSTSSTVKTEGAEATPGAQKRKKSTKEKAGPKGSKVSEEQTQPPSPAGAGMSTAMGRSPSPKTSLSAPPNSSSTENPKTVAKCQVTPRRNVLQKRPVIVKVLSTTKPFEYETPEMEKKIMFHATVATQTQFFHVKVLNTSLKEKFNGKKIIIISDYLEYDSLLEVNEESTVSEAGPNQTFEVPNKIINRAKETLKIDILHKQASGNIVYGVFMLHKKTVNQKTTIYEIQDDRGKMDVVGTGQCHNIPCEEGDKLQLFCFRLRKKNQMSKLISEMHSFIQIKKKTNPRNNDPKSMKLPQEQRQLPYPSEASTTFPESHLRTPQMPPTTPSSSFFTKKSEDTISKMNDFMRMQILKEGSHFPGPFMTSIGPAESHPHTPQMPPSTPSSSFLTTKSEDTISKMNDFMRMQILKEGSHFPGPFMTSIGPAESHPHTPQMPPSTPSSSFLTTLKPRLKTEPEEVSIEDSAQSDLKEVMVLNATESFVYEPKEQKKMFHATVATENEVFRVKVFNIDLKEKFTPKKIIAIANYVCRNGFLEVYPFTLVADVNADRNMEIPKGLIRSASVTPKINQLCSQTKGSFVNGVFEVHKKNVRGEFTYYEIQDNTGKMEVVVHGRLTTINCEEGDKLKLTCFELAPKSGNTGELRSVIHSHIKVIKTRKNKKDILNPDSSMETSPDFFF

T2: Flag-tagged SHARPIN (human, UniProt Q9H0F6 1-387)
T2 construct: also called Flag-SHARPIN; not shown: FLAG tag
T2 sequence (looked up): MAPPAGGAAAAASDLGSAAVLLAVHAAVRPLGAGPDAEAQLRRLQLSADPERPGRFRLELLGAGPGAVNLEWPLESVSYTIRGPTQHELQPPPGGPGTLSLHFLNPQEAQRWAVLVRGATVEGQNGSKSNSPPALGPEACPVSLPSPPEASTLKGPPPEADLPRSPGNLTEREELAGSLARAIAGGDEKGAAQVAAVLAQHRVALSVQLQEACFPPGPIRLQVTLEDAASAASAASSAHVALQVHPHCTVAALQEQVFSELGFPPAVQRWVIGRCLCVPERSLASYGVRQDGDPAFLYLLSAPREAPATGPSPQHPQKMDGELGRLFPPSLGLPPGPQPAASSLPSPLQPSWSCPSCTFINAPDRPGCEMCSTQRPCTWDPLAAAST

T3: Interferon-activable protein 204 (Mus musculus) (IFI204) (Mus musculus, UniProt P0DOV2 1-619)
T3 construct: also called IF204
T3 sequence: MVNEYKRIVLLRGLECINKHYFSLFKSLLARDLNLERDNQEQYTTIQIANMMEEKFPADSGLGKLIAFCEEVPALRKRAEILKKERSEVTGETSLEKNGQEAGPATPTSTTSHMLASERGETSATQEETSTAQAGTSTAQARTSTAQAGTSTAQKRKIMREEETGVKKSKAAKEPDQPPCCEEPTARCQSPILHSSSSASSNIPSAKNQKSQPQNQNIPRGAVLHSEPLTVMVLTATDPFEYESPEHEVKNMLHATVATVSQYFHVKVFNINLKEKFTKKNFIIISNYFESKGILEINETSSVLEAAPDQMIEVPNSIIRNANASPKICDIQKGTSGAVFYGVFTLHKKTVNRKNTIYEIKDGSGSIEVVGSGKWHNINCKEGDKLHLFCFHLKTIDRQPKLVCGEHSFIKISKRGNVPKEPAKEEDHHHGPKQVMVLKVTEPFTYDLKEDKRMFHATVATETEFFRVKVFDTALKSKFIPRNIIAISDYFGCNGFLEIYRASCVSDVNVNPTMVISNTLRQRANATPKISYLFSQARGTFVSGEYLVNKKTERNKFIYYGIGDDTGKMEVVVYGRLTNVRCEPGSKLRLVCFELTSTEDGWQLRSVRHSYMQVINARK


How the values were obtained:
[1] = target: T1, Gamma-interferon-inducible protein 16 …; assay: co-immunoprecipitation and immunoblot, human melanoma cell lysates (FIGS. 8C, 10C)
Flag-tagged SHARPIN = target: T2, Flag-tagged SHARPIN; assay: Flag IP of Flag-SHARPIN from WM115 lysate, on-bead tryptic digestion, LC/MS-MS
Method: To identify SHARPIN-interacting proteins, WM115 cells were transfected with Flag-tagged SHARPIN or control empty plasmid. Cell lysates were prepared using 1% Triton X-100 buffer [50 mM Tris-HCl, pH7.4, 1% (v/v) Triton X-100, 150 mM NaCl, 1 mM EDTA, and protease and phosphatase inhibitor cocktails (Thermo Fisher Scientific)]. Lysates were pre-cleared with protein A/G beads (Santa Cruz Biotechnology) for 1 h at 4° C. followed by immunoprecipitation using FLAG-M2-agarose beads (Sigma-Aldrich) overnight at 4° C. Beads were then washed with lysis buffer and TBS containing lx protease inhibitor cocktail before being subjected to on-bead tryptic digestion followed by mass spectrometry. In Vitro Methylation Assay.

[2] = target: T3, Interferon-activable protein 204 (Mus …); assay: co-immunoprecipitation and immunoblot, B16 cell lysates (FIG. 8D)
Method: FIG. 8D depicts B16 cells were treated with vehicle (DMSO) or PRMT5 inhibitor (PRMT5i; EPZ015666, 10 μM) for 48. IP followed by IB of B16 cells lysates (1.5 mg) was performed with the indicated antibodies. SYM10 indicates anti-symmetric dimethyl arginine antibody (Millipore). FIGS. 8E and 8F depict A375 (FIG. 8E) or B16 (FIG. 8F) cells treated with vehicle or a PRMT5 inhibitor (EPZ015666) as above before lysates [A375 (1.0 mg), B16 (2.5 mg)] were prepared and subjected to IP followed by immunoblotting with indicated antibodies. FIG. 8G depicts B16 cells stably expressing indicated constructs were treated 24 h with DMSO or PRMT5i before lysates were IP'ed with V5 antibody and immunoblotted with indicated antibodies.
Immunoblotting was performed using standard protocols. Melanoma cells were lysed by incubation in RIPA buffer [50 mM Tris-HC1, pH7.4, 1% (v/v) NP40, 0.1% (w/v) sodium deoxycholate, 0.1% (w/v) sodium dodecyl sulfate, 150 mM NaCl, 1mM EDTA, and protease and phosphatase inhibitor cocktails (Thermo Fisher Scientific)] and freeze-thawed 3 times. For immunoprecipitation HEK293T cells were lysed in 1% Triton X-100 buffer [50 mM Tris-HC1, pH7.4, 1% (v/v) Triton X-100, 150 mM NaCl, 1 mM EDTA, and protease and phosphatase inhibitor cocktails (Thermo Fisher Scientific)] and freeze-thawed 3 times. […]

binding result (Flag-tagged SHARPIN) | Binder | other results
– | SHARPIN (endogenous, human melanoma cells WM115 / A375) (other, UniProt Q9H0F6 1-387, looked up) MAPPAGGAAAAASDLGSAAVLLAVHAAVRPLGAGPDAEAQLRRLQLSADPERPGRFRLELLGAGPGAVNLEWPLESVSYTIRGPTQHELQPPPGGPGTLSLHFLNPQEAQRWAVLVRGATVEGQNGSKSNSPPALGPEACPVSLPSPPEASTLKGPPPEADLPRSPGNLTEREELAGSLARAIAGGDEKGAAQVAAVLAQHRVALSVQLQEACFPPGPIRLQVTLEDAASAASAASSAHVALQVHPHCTVAALQEQVFSELGFPPAVQRWVIGRCLCVPERSLASYGVRQDGDPAFLYLLSAPREAPATGPSPQHPQKMDGELGRLFPPSLGLPPGPQPAASSLPSPLQPSWSCPSCTFINAPDRPGCEMCSTQRPCTWDPLAAAST | binding result [1]: binds
binds | SLC25A4 (other, human, UniProt P12235 2-298, looked up, endogenous protein co-purified from WM115 lysate) GDHAWSFLKDFLAGGVAAAVSKTAVAPIERVKLLLQVQHASKQISAEKQYKGIIDCVVRIPKEQGFLSFWRGNLANVIRYFPTQALNFAFKDKYKQLFLGGVDRHKQFWRYFAGNLASGGAAGATSLCFVYPLDFARTRLAADVGKGAAQREFHGLGDCIIKIFKSDGLRGLYQGFNVSVQGIIIYRAAYFGVYDTAKGMLPDPKNVHIFVSWMIAQSVTAVAGLVSYPFDTVRRRMMMQSGRKGADIMYTGTVDCWRKIAKDEGAKAFFKGAWSNVLRGMGGAFVLVLYDEIKKYV | –
binds | MYL12A (other, human, UniProt P19105 1-171, looked up, endogenous protein co-purified from WM115 lysate) MSSKRTKTKTKKRPQRATSNVFAMFDQSQIQEFKEAFNMIDQNRDGFIDKEDLHDMLASLGKNPTDEYLDAMMNEAPGPINFTMFLTMFGEKLNGTDPEDVIRNAFACFDEEATGTIQEDYLRELLTTMGDRFTDEEVDELYREAPIDKKGNFNYIEFTRILKHGAKDKDD | –
binds | MYL128 (other, human, UniProt O14950 1-172, looked up, endogenous protein co-purified from WM115 lysate; also called MYL12B) MSSKKAKTKTTKKRPQRATSNVFAMFDQSQIQEFKEAFNMIDQNRDGFIDKEDLHDMLASLGKNPTDAYLDAMMNEAPGPINFTMFLTMFGEKLNGTDPEDVIRNAFACFDEEATGTIQEDYLRELLTTMGDRFTDEEVDELYREAPIDKKGNFNYIEFTRILKHGAKDKDD | –
binds | GSTP1 (other, human, UniProt P09211 2-210, looked up, endogenous protein co-purified from WM115 lysate) PPYTVVYFPVRGRCAALRMLLADQGQSWKEEVVTVETWQEGSLKASCLYGQLPKFQDGDLTLYQSNTILRHLGRTLGLYGKDQQEAALVDMVNDGVEDLRCKYISLIYTNYEAGKDDYVKALPGQLKPFETLLSQNQGGKTFIVGDQISFADYNLLDLLLIHEVLAPGCLDAFPLLSAYVGRLSARPKLKAFLASPEYVNLPINGNGKQ | –
– | SHARPIN (endogenous, murine B16 melanoma cells) (other, mouse, UniProt Q91WA6 1-380, looked up) MSPPAGGAAVAADPASPVVLLAVHAAVRPLGAGQDAEAQPRKLQLIADPERPGRFRLGLLGTEPGAVSLEWPLEAICYTVRGPNQHELQPPPGGPGTFSVHFLDPEEAQQWAALVRDATAEGQNGSGSPAPAPAPAMCPISPPCSSMAQIPKATQPEVDLPQSSGNFKKEELATRLSQAIAGGDEKAAAQVAAVLAQHHVALNVQLMEAWFPPGPIRLQVTVEDATSVLSSSSSAHVSLKIHPHCSIAALQDQVFSEFGFPPAVQRWVIGRCLCMPERSLASYGVSQDGDPAFLYLLSAPREVSGQSLQNSKMDRKLGLFPQSLGLPHDLQPSSSSLPSPSQPGWSCPSCTFINASNRPGCEMCSTQRPCAWDPLAAAST | binding result [2]: binds
